Laboratory results taken from PMC5500506.

Test system: T1, GdmRIII (Streptomyces autolyticus CGMCC0516), ORF:755639c7
T1 sequence: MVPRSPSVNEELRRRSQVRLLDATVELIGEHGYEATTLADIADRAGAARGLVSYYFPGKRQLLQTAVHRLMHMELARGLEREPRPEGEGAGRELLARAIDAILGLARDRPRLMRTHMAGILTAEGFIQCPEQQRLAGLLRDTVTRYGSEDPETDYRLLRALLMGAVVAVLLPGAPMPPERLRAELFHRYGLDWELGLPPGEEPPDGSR
Assay: EMSA
Settings: EMSA: 10 mM Tris-HCl pH 7.5, 50 mM NaCl, 10 mM MgCl2, 1 mM EDTA, 1 mM DTT, 5% glycerol, 0.1 ug/ul poly(dI-dC), 0.3 nM DNA; temperature not given

AGGAGCTGCCCGACTGGCGGTCCTTCTGGGAGCTGCCGCACGACATCGTCGATGTGCGCGGCAACCACTTCACCATGATGGAGGACCACTCCCTCCCCACCGCCCAGGCCATCGAGGACTGGCTGGAGCGACT (double strand) [elaF promoter]
binding: binds

GCGACGTCCACCGCCGTCTCCTTCCCGCTCATTCGCCCGCCAGGATCAGATCGACCGTGTCCTGGAACTCGTCCGCCTTCACCAGCACCTTGGTGCGCTCCACCCCGTCCTCGACGGTGAAGCAGCGCCTGCCGATCAGCACGATCTTTCCGTTGTCCGTGGCCCGGCTGCGGAAGGTGGTCCCGGCGAGCACCGAGTCCTGTGCGTAGTCGTCCAGGCTGTCCAGCCGCACCGCGTCCCAGCCGGACGGGTCGGCCAGCTCCGGCCGGAACCGGTACACCGGCTGCCAGCCGCTCTC (double strand) [gdmM promoter]
binding: binds

GCTCACCGACCCCGCGCACGAGGTGCTGGTCATCACGATGGCCGACCGGTTCGGCCCGCACGGCGCCGTCGGCATCGTGCTGCTGGAACGCCACCCGGCGGTGTGGCATCTGAAACTGCTCGCCACCTCCTGCCGTGTGGTCTCCTACGGCGCCGGGTCCACCCTGCTGAACTGGCTGGCCGACCAGGCGGCGCGTGCCGGGGTGCATCTGGCCGCCGACTTCCGGCGCACCGACCGCAACCGGATGATGGAGGTCGCCTACCGCTTCGCCGGGTTCGCCGACGCCGACTGCGCCTGCAC (double strand) [gdmN promoter]
binding: binds
